Test results as given in the supplement of paper PMC9732359.
± gives the uncertainty stated by the source.

Assay: protein stability index of a GFP-peptide fusion (yeast GPS) (PSI 1-4); higher = more stable; sorted into four equal gates, so the index is relative within each strain
Summary of the method: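 Yeast carrying a pooled library were grown to mid-log phase in leucine-free medium. Each library plasmid expresses Cherry and has a tiled 17-residue yeast protein peptide fused downstream of GFP. Cells were sorted into four equal gates by GFP/Cherry ratio, and plasmids from each gate were PCR-amplified, Illumina-sequenced and assigned to strains by barcode. Summing, across gates, the read frequency times the gate number gave each peptide's protein stability index.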

Row | Sequence | protein stability index (doa10∆) | protein stability index (pdr5∆) | protein stability index (san1∆) | protein stability index (ubr1∆)
1 | NSDKPRDVYVFDKVEVQ [DIS3] | 2.96 ± 0.058 | 2.93 ± 0.066 | 3.1 ± 0.056 | 3 ± 0.059
2 | TASDQLFGMCESLYEPN [PUP3] | 2.06 ± 0.059 | 2.12 ± 0.058 | 2.71 ± 0.084 | 1.83 ± 0.039
3 | PLPICHANSVVALTGLL [YML031W/NDC1] | 3.13 ± 0.12 | 1.73 ± 0.083 | 2.58 ± 0.099 | 2.5 ± 0.12
4 | IELLCGLGKSAVNWQDK [NAS6] | – | – | 3.75 ± 0.086 | –
5 | VTPTKTEVIIRATRTQD [RPS3] | 1.86 ± 0.049 | 1.91 ± 0.044 | 2.57 ± 0.069 | 1.91 ± 0.033
6 | PNDSNDEKVTILVDSLT [SWI1] | 2.67 ± 0.057 | 2.81 ± 0.065 | 3.01 ± 0.071 | 3.06 ± 0.042
7 | ECYKQLFLTAPDSCNMQ [YCS4] | 2.42 ± 0.11 | 2.21 ± 0.16 | 2.85 ± 0.12 | 2.5 ± 0.083
8 | VPTVPPSQSEEQKGQMA [MED4] | 2.78 ± 0.12 | 2.82 ± 0.058 | 3 ± 0.067 | 2.6 ± 0.091
9 | GTANNNSNTTNQNSSTG [YJL041W/NSP1] | 3.19 ± 0.064 | 3.37 ± 0.075 | 3.25 ± 0.042 | 3.09 ± 0.061
10 | NDDKKTEPDKPAFSFNS [YJL041W/NSP1] | 2.89 ± 0.047 | 3.12 ± 0.039 | 3.07 ± 0.032 | 3.202 ± 0.029
11 | LFNNHLNGILADEMGLG [SNF2] | 2.83 ± 0.11 | 2.64 ± 0.1 | 3.28 ± 0.068 | 2.59 ± 0.092
12 | PKNFGIGQAVQPKRNLS [RPL8A] | 2.74 ± 0.064 | 2.74 ± 0.056 | 2.78 ± 0.043 | 2.69 ± 0.05
13 | SDSSKPAFSFGTKSNEK [YJL041W/NSP1] | 2.97 ± 0.073 | 2.19 ± 0.058 | 2.79 ± 0.076 | 2.75 ± 0.041
14 | KLEPKEIVRDILHTKES [SIR4] | 2.92 ± 0.1 | 3.1 ± 0.14 | 2.5 ± 0.18 | 3.04 ± 0.086
15 | SPDQMRNLQMGLRNQNM [GRR1] | 3.23 ± 0.12 | 3.52 ± 0.16 | 3.22 ± 0.088 | 2.71 ± 0.082
16 | AILQKSLKNVTEKNREI [YIL149C/MLP2] | 3.01 ± 0.051 | 2.79 ± 0.064 | 3.05 ± 0.032 | 2.96 ± 0.036
17 | IEGVVILKKNPDYREEE [RPN1] | 3.06 ± 0.08 | 3.09 ± 0.09 | 3.1 ± 0.075 | 3.1 ± 0.062
18 | PFDDDEPPLSYEQHIEN [PRP8] | 2.42 ± 0.058 | 2.86 ± 0.092 | 3.06 ± 0.07 | 2.31 ± 0.053
19 | FAKEHNATVNLAMEAIL [YJR042W/NUP85] | 2.93 ± 0.094 | 2.66 ± 0.1 | 2.71 ± 0.098 | 2.63 ± 0.092
20 | KIKFDESSKLMTVTKVS [BRR2] | 1.75 ± 0.099 | 1.36 ± 0.078 | 1.5 ± 0.2 | 1.35 ± 0.05
21 | VIDIEIHVLEQDGGIMG [SKI6] | 2.84 ± 0.076 | 2.56 ± 0.095 | 2.5 ± 0.11 | 2.85 ± 0.062
22 | IYPRTVIDIEIHVLEQD [SKI6] | 1.42 ± 0.055 | 1.88 ± 0.049 | 1.6 ± 0.15 | 1.83 ± 0.041
23 | CVKAIEALFQSRPDILS [YCG1] | 3.19 ± 0.083 | 2.47 ± 0.085 | 3.03 ± 0.082 | 3.05 ± 0.087
24 | ISLSFSRPASYGYFSVG [SIR4] | 1.78 ± 0.073 | 1.82 ± 0.06 | 1.81 ± 0.11 | 2.07 ± 0.052
25 | EKAIPKDQRATTPYMTK [RPO26] | 2.85 ± 0.043 | 2.98 ± 0.047 | 2.97 ± 0.046 | 3.03 ± 0.044
26 | LNISGEFFRNKLKYHDF [RPL16A] | 1.32 ± 0.13 | – | – | 1.12 ± 0.1

Row | Sequence | protein stability index (doa10∆) | protein stability index (pdr5∆) | protein stability index (san1∆) | protein stability index (ubr1∆)
27 | EKQTPNKKDKKKEEEEQ [RPN1] | 3 ± 0.059 | 2.98 ± 0.092 | 3.01 ± 0.042 | 3.16 ± 0.058
28 | KESDLLEETRTTIGDTT [BRN1] | 2.47 ± 0.051 | 3.18 ± 0.064 | 2.99 ± 0.053 | 3.19 ± 0.055
29 | RGVRPYKHIDASGSINR [RPS19A] | 3.23 ± 0.089 | 3.42 ± 0.1 | 3.1 ± 0.062 | 3.23 ± 0.091
30 | VFLRNRLKYALNGREVK [RPS4A] | 2.93 ± 0.099 | 2.82 ± 0.12 | 2.69 ± 0.086 | 3.06 ± 0.095
31 | SPVELSRMFEEVSGSIQ [SMC1] | 2.9 ± 0.06 | 2.16 ± 0.052 | 2.38 ± 0.065 | 3.02 ± 0.062
32 | IPQDFENEVSDIDVTIV [ESC2] | 2.96 ± 0.096 | 2.34 ± 0.092 | 2.77 ± 0.11 | 2.42 ± 0.054
33 | KVTSYDITGDIRNEGSD [ISW2] | 3.15 ± 0.17 | 3.04 ± 0.21 | 3.21 ± 0.14 | –
34 | RPLKLERGFACIPLVGI [FAS1] | 1.69 ± 0.067 | 1.73 ± 0.048 | 1.51 ± 0.092 | 1.69 ± 0.048
35 | NSSTSPAPSIPSTGFKF [YLR335W/NUP2] | 2.38 ± 0.04 | 2.5 ± 0.036 | 2.48 ± 0.043 | 2.21 ± 0.028
36 | ITLRTSGELLQGIVRVY [MCD1] | 2.96 ± 0.075 | 2.9 ± 0.063 | 2.48 ± 0.066 | 3.12 ± 0.057
37 | SFLGYLRYVKQIEGPFL [ISW2] | 2.28 ± 0.061 | 2.42 ± 0.046 | 2.45 ± 0.053 | 2.4 ± 0.04
38 | NWIKPSDSEIPPLLVYK [PRP8] | 2.16 ± 0.065 | 2.24 ± 0.056 | 2.21 ± 0.075 | 2.12 ± 0.063
39 | YFGENSSISWKNIAQCL [YJL039C/NUP192] | 1.95 ± 0.084 | 2.57 ± 0.066 | 1.93 ± 0.064 | 2.11 ± 0.062
40 | PVAKWFVKFITYLTQEI [SIN4] | 2.32 ± 0.048 | 1.88 ± 0.046 | 1.76 ± 0.078 | 2.07 ± 0.064
41 | MAPNTSRKQKIAKTFTV [RPL22A] | 2.15 ± 0.17 | 2.03 ± 0.089 | 2.61 ± 0.13 | 2.03 ± 0.092
42 | EVILVDPQHKAIRRDAR [RPL15A] | 2.87 ± 0.088 | 3.15 ± 0.13 | 2.78 ± 0.28 | 2.97 ± 0.17
43 | LPNLGTPDDDEIDVENH [RPN8] | 1.53 ± 0.076 | 1.82 ± 0.083 | 1.69 ± 0.11 | 1.42 ± 0.056
44 | LYVPHSENRFPGWDFET [RPL5] | 2.44 ± 0.12 | 2.89 ± 0.069 | 2.21 ± 0.1 | 2.68 ± 0.13
45 | LKIIYTGLCSFDYSVIL [YJL039C/NUP192] | 1.73 ± 0.081 | 1.5 ± 0.057 | 1.6 ± 0.11 | 1.59 ± 0.071
46 | KKFLRVRIFTKIESEDD [SRB4] | 1.46 ± 0.092 | 1.26 ± 0.089 | 1.16 ± 0.13 | 1.11 ± 0.083
47 | SNIEQTESLRVENSVLI [YIL149C/MLP2] | 3.25 ± 0.091 | 3.09 ± 0.14 | 3.08 ± 0.049 | 3.07 ± 0.064
48 | LVTAGVAAAGITASTLL [CYT1] | 1.57 ± 0.058 | 1.76 ± 0.066 | 1.62 ± 0.098 | 1.67 ± 0.044
49 | EVNKSELYLTAELSEIW [SIR3] | – | 2.86 ± 0.29 | – | 3.24 ± 0.21
50 | IPDMSKNVELGWKPLRY [SNU114] | 3.29 ± 0.24 | 3.23 ± 0.23 | 2.58 ± 0.23 | 3.22 ± 0.15
51 | TPPDDLHPYVPSSKPQE [SRB8] | 2.71 ± 0.081 | 2.98 ± 0.073 | 2.93 ± 0.048 | 3.07 ± 0.049
52 | TVRKSIACVLTVINEQQ [RPL35A] | 1.62 ± 0.077 | 2.07 ± 0.077 | 2.21 ± 0.079 | 2.11 ± 0.063
